Measured values: article PMC10197177

System: BG4 (anti-G-quadruplex antibody)
Assay: sandwich ELISA
Conditions: K1 pre-bound to immobilized wild-type spike, ELONA: 20 mM Tris, 5 mM KCl, 2 mM MgCl2, 0.5 mM CaCl2, pH 7.4, room temperature, BG4 sandwich ELISA: Methods give 20 mM Tris, 5 mM MgCl2 …

AATGGATCCACATCTACGAGCTCGAACGCCCGGAGGAGACGGGGGCAGGGCGTGTTCACTGCAGACTTGACGAAGCT [K1 (truncated working aptamer)]
Kd: 1.77 nM
